Paper PMC8205142

Target: recombinant venestatin (Strongyloides venezuelensis)
Experiment: ELISA; r-venestatin (4 ug/mL) coated on wells; RAGE or TLR4 (0-4 ug/mL) in buffer A (50 mM Tris-HCl pH 7, 10 mM NaCl, 5 mM CaCl2), ambient temperature, 1 h; detected with anti-RAGE or anti-TLR4 antibodies; KD by Scatchard plot

“recombinant human RAGE (receptor for advanced glycation end products) (from UniProt Q15109 23-342)” showed a Kd of 43.6 nM.
